# Biological target: GST-tagged PLD1-PX
# Test: AFM force measurement; GST-Munc-18-1 on dendron-modified tip, GST-PLD1-PX on dendron-modified Si wafer
substance,measurement,value
GST-tagged Munc-18-1,binding force,50 pN
